Where two headings read alike, the source gives them in different places.
Assays:
[1] = molecular target: biotinylated mouse IL-2Rα (mIL-2Rα ectodomain with C-terminal biotin acceptor peptide) (mouse); test: SPR
[2] = molecular target: biotinylated mouse IL-2Rα (mIL-2Rα ectodomain with C-terminal biotin acceptor peptide) (mouse); test: SPR; remark: listed apart in the source
[3] = molecular target: IL-2 receptor βγ (Homo sapiens) (UniProt P14784); conditions: cited from earlier work
[4] = molecular target: mouse IL-2 (mIL-2, amino acids 1–149), hexahistidine-tagged (Mus musculus, UniProt P04351); test: SPR
Chain of mouse IL-2 (mIL-2, amino acids 1–149), hexahistidine-tagged (P04351 21-169): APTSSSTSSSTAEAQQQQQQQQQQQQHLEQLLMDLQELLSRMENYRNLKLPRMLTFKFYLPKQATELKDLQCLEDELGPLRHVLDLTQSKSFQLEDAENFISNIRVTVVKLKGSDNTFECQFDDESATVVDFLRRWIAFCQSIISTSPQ

Chain of JES6–1 immunocytokine (IL-2 tethered to the N-terminus of the JES6–1 antibody light chain) (P04351 whole entry, looked up): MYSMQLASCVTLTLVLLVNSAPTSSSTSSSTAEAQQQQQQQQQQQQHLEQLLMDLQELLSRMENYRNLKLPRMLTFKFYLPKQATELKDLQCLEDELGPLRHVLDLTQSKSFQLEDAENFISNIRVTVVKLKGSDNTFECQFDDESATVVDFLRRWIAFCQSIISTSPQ
Chain of JES6–1 immunocytokine mutant H100A (VL) (P04351 whole entry, looked up, stated change not applied): as the sequence (P04351 whole entry, looked up) above
Chain of JES6–1 immunocytokine double mutant S34A+Y101A (VL) (P04351 whole entry, looked up, stated change not applied): as the sequence (P04351 whole entry, looked up) above
Chain of JES6–1 immunocytokine mutant D55A (VH) (P04351 whole entry, looked up, stated change not applied): as the sequence (P04351 whole entry, looked up) above
Chain of JES6–1 immunocytokine mutant D58A (VH) (P04351 whole entry, looked up, stated change not applied): as the sequence (P04351 whole entry, looked up) above
Chain of JES6–1 immunocytokine double mutant S34A+Y41A (VL) (P04351 whole entry, looked up, stated change not applied): as the sequence (P04351 whole entry, looked up) above
Chain of JES6–1 immunocytokine triple mutant S34A+Y41A+Y101A (VL) (P04351 whole entry, looked up, stated change not applied): as the sequence (P04351 whole entry, looked up) above
Chain of JES6–1 immunocytokine mutant E60A (VH) (P04351 whole entry, looked up, stated change not applied): as the sequence (P04351 whole entry, looked up) above
Chain of JES6–1 immunocytokine mutant S34A (VL) (P04351 whole entry, looked up, stated change not applied): as the sequence (P04351 whole entry, looked up) above
Chain of JES6–1 immunocytokine mutant Y41A (VL) (P04351 whole entry, looked up, stated change not applied): as the sequence (P04351 whole entry, looked up) above
Chain of JES6–1 immunocytokine mutant R62A (VH) (P04351 whole entry, looked up, stated change not applied): as the sequence (P04351 whole entry, looked up) above
Chain of JY3 immunocytokine (JES6–1 immunocytokine double mutant Y41A+Y101A, VL) (P04351 whole entry, looked up, stated change not applied): as the sequence (P04351 whole entry, looked up) above
Chain of JES6–1 immunocytokine mutant Y101A (VL) (P04351 whole entry, looked up, stated change not applied): as the sequence (P04351 whole entry, looked up) above
Chain of IL-2 (P60568 21-153): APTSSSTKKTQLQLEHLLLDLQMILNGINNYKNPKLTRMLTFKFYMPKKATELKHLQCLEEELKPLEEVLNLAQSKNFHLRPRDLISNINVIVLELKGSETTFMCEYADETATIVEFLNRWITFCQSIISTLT
Chain of IL-2 receptor βγ (Homo sapiens) (P14784 27-240, chain 1 of 2): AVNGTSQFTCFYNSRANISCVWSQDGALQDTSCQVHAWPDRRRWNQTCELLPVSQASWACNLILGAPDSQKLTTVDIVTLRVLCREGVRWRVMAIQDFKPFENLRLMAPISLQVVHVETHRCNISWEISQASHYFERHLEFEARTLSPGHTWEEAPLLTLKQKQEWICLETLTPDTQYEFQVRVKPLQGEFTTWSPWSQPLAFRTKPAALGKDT
Chain of IL-2 receptor βγ (Homo sapiens) (P31785 23-262, chain 2 of 2, further chain): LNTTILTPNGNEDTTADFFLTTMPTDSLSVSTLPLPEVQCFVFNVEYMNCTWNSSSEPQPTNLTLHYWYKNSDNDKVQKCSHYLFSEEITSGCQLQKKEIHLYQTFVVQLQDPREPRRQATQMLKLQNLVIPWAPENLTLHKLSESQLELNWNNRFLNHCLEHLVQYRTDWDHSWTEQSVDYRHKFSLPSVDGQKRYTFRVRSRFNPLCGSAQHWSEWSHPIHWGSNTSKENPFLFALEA

Kd [1] [nM] | Kd [4] [nM] | Molecule | further results
240 | – | JES6–1 immunocytokine mutant H100A (VL) (from UniProt P04351 21-169) | –
170 | – | JES6–1 immunocytokine mutant S34A (VL) (from UniProt P04351 21-169) | –
130 | – | JES6–1 immunocytokine mutant Y41A (VL) (from UniProt P04351 21-169) | –
260 | – | JES6–1 immunocytokine mutant D58A (VH) (from UniProt P04351 21-169) | –
– | 6.4 | biotinylated JES6–1 antibody mutant Y41A (VL) (antibody, V domains shown) VH: EIQLQQSGPELRRPGSSVKLSCKASGYNITDYLIHWVRHRPEHGLEWIGWIDPEDGETRYAQKFQSKATLTADTSSNAAYMQLSSLTPEDTATYFCARSLDSTYIYPFAYWGQGTLVTVSS VL: DIVMTQSPFSLAVSEGEMVTINCKSSQSLLSSGNQKNALAWYQQKPGQSPKLLIYYASTGQSGVPDRFIGSGSGTDFTLTISDVQAEDLADYYCLQHYISPPTFGAGTKLELK | –
– | 62 | biotinylated JES6–1 antibody mutant H100A (VL) (antibody, V domains shown) VH: EIQLQQSGPELRRPGSSVKLSCKASGYNITDYLIHWVRHRPEHGLEWIGWIDPEDGETRYAQKFQSKATLTADTSSNAAYMQLSSLTPEDTATYFCARSLDSTYIYPFAYWGQGTLVTVSS VL: DIVMTQSPFSLAVSEGEMVTINCKSSQSLLSSGNQKNYLAWYQQKPGQSPKLLIYYASTGQSGVPDRFIGSGSGTDFTLTISDVQAEDLADYYCLQAYISPPTFGAGTKLELK | –
– | 500 | biotinylated JES6–1 antibody mutant D55A (VH) (antibody, V domains shown) VH: EIQLQQSGPELRRPGSSVKLSCKASGYNITDYLIHWVRHRPEHGLEWIGWIAPEDGETRYAQKFQSKATLTADTSSNAAYMQLSSLTPEDTATYFCARSLDSTYIYPFAYWGQGTLVTVSS VL: DIVMTQSPFSLAVSEGEMVTINCKSSQSLLSSGNQKNYLAWYQQKPGQSPKLLIYYASTGQSGVPDRFIGSGSGTDFTLTISDVQAEDLADYYCLQHYISPPTFGAGTKLELK | –
– | 56 | biotinylated JES6–1 antibody mutant E60A (VH) (antibody, V domains shown) VH: EIQLQQSGPELRRPGSSVKLSCKASGYNITDYLIHWVRHRPEHGLEWIGWIDPEDGATRYAQKFQSKATLTADTSSNAAYMQLSSLTPEDTATYFCARSLDSTYIYPFAYWGQGTLVTVSS VL: DIVMTQSPFSLAVSEGEMVTINCKSSQSLLSSGNQKNYLAWYQQKPGQSPKLLIYYASTGQSGVPDRFIGSGSGTDFTLTISDVQAEDLADYYCLQHYISPPTFGAGTKLELK | –

More lines, now with the values behind:

Molecule | Kd [1] [nM] | Kd [4] [nM] | further results
JES6–1 immunocytokine mutant E60A (VH) (from UniProt P04351 21-169) | 210 | – | –
JES6–1 immunocytokine double mutant S34A+Y101A (VL) (from UniProt P04351 21-169) | – | – | Kd [2]: 82 nM
JES6–1 immunocytokine mutant D55A (VH) (from UniProt P04351 21-169) | 230 | – | –
JES6–1 immunocytokine mutant R62A (VH) (from UniProt P04351 21-169) | 190 | – | –
JY3 immunocytokine (JES6–1 immunocytokine double mutant Y41A+Y101A, VL) (from UniProt P04351 21-169) | – | – | Kd [2]: 82 nM
JES6–1 immunocytokine triple mutant S34A+Y41A+Y101A (VL) (from UniProt P04351 21-169) | – | – | Kd [2]: 130 nM
JES6–1 immunocytokine (IL-2 tethered to the N-terminus of the JES6–1 antibody light chain) (from UniProt P04351 21-169) | 290 | – | Kd [2]: 220 nM
JES6–1 immunocytokine mutant Y101A (VL) (from UniProt P04351 21-169) | 140 | – | –
JES6–1 immunocytokine double mutant S34A+Y41A (VL) (from UniProt P04351 21-169) | – | – | Kd [2]: 210 nM
IL-2 (from UniProt P60568) | – | – | Kd [3]: 1 nM
biotinylated JES6–1 antibody mutant S34A (VL) (antibody, V domains shown) VH: EIQLQQSGPELRRPGSSVKLSCKASGYNITDYLIHWVRHRPEHGLEWIGWIDPEDGETRYAQKFQSKATLTADTSSNAAYMQLSSLTPEDTATYFCARSLDSTYIYPFAYWGQGTLVTVSS VL: DIVMTQSPFSLAVSEGEMVTINCKSSQSLLASGNQKNYLAWYQQKPGQSPKLLIYYASTGQSGVPDRFIGSGSGTDFTLTISDVQAEDLADYYCLQHYISPPTFGAGTKLELK | – | 6.5 | –
biotinylated JES6–1 antibody mutant Y101A (VL) (antibody, V domains shown) VH: EIQLQQSGPELRRPGSSVKLSCKASGYNITDYLIHWVRHRPEHGLEWIGWIDPEDGETRYAQKFQSKATLTADTSSNAAYMQLSSLTPEDTATYFCARSLDSTYIYPFAYWGQGTLVTVSS VL: DIVMTQSPFSLAVSEGEMVTINCKSSQSLLSSGNQKNYLAWYQQKPGQSPKLLIYYASTGQSGVPDRFIGSGSGTDFTLTISDVQAEDLADYYCLQHAISPPTFGAGTKLELK | – | 12 | –
biotinylated JES6–1 antibody mutant D58A (VH) (antibody, V domains shown) VH: EIQLQQSGPELRRPGSSVKLSCKASGYNITDYLIHWVRHRPEHGLEWIGWIDPEAGETRYAQKFQSKATLTADTSSNAAYMQLSSLTPEDTATYFCARSLDSTYIYPFAYWGQGTLVTVSS VL: DIVMTQSPFSLAVSEGEMVTINCKSSQSLLSSGNQKNYLAWYQQKPGQSPKLLIYYASTGQSGVPDRFIGSGSGTDFTLTISDVQAEDLADYYCLQHYISPPTFGAGTKLELK | – | 200 | –
biotinylated JES6–1 antibody mutant R62A (VH) (antibody, V domains shown) VH: EIQLQQSGPELRRPGSSVKLSCKASGYNITDYLIHWVRHRPEHGLEWIGWIDPEDGETAYAQKFQSKATLTADTSSNAAYMQLSSLTPEDTATYFCARSLDSTYIYPFAYWGQGTLVTVSS VL: DIVMTQSPFSLAVSEGEMVTINCKSSQSLLSSGNQKNYLAWYQQKPGQSPKLLIYYASTGQSGVPDRFIGSGSGTDFTLTISDVQAEDLADYYCLQHYISPPTFGAGTKLELK | – | 4.3 | –
